Consider one molecule from paper PMC12514197, “LARGE1 processively polymerizes length-controlled matriglycan on prodystroglycan” (Nature Communications, 2025).

Series [1] addresses T1, prodystroglycan (DAG1_(28-340)) (Homo sapiens, UniProt Q14118 28-340, R311A | R312A).
T1 sequence: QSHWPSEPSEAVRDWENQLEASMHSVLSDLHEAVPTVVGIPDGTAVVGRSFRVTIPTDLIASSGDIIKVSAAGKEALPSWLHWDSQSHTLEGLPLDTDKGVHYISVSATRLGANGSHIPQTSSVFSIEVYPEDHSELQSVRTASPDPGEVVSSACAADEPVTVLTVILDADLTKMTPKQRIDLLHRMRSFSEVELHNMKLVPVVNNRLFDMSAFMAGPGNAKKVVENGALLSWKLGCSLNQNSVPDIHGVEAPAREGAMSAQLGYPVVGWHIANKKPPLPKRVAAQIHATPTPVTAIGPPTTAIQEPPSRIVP
The series can be described thus: MST.

Series [2] concerns the molecule itself. Briefly: SEC-MALS; Superdex 200 Increase 10/300 GL, 20 mM HEPES pH 7.4, 150 mM NaCl, samples 4-8 mg/mL, on line with SAXS. In general terms: Size exclusion chromatography separates by hydrodynamic size, large species first.

B1: LARGE1dTM (enzyme)
chain: FEDGKPVSLSPLESQAHSPRYTASSQRERESLEVRMREVEEENRALRRQLSLAQGRAPSHRRGNHSKTYSMEEGTGDSENLRAGIVAGNSSECGQQPVVEKCETIHVAIVCAGYNASRDVVTLVKSVLFHRRNPLHFHLIADSIAEQILATLFQTWMVPAVRVDFYNADELKSEVSWIPNKHYSGIYGLMKLVLTKTLPANLERVIVLDTDITFATDIAELWAVFHKFKGQQVLGLVENQSDWYLGNLWKNHRPWPALGRGYNTGVILLLLDKLRKMKWEQMWRLTAERELMGMLSTSLADQDIFNAVIKQNPFLVYQLPCFWNVQLSDHTRSEQCYRDVSDLKVIHWNSPKKLRVKNKHVEFFRNLYLTFLEYDGNLLRRELFGCPSEADVNSENLQKQLSELDEDDLCYEFRRERFTVHRTHLYFLHYEYEPAADSTDVTLVAQLSMDRLQMLEAICKHWEGPISLALYLSDAEAQQFLRYAQGSEVLMSRHNVGYHIVYKEGQFYPVNLLRNVAMKHISTPYMFLSDIDFLPMYGLYEYLRKSVIQLDLANTKKAMIVPAFETLRYRLSFPKSKAELLSMLDMGTLFTFRYHVWTKGHAPTNFAKWRTATTPYRVEWEADFEPYVVVRRDCPEYDRRFVGFGWNKVAHIMELDVQEYEFIVLPNAYMIHMPHAPSFDITKFRSNKQYRICLKTLKEEFQQDMSRRYGFAALKYLTAENNS
modifications: N-glycans; NHS-red label in the microscale thermophoresis experiments
notes: LARGE1 lacking the transmembrane domain; soluble secreted construct; Homodimer by cryo-EM and SEC-MALS; also called Like-acetylglucosaminyltransferase-1; apo-LARGE1dTM; source: HEK293-F, stably transfected, secreted, purified (TALON resin)
In series [1], B1 showed a Kd of approximately 180 nM. The “stoichiometry N” value in series [2] worked out at 2.

As usually defined, the Kd is the free concentration of one partner at which half of the binding sites on the other are occupied at equilibrium, for simple one-to-one binding. The term stoichiometry N denotes a count of units in the complex or per binding partner.
